From paper PMC5904255, “High-Mobility Group Box 1-Induced Complement Activation Causes Sterile Inflammation” (Frontiers in Immunology, 2018) come the findings set out here.

In experiment [1] the target is T1, purified normal human C1q (human, UniProt P02745 23-245; P02746 28-253; P02747 29-245).
T1 construct: Complement C1q subcomponent subunit A, human; Complement C1q subcomponent subunit B, human; Complement C1q subcomponent subunit C, human; Used purified (ELISA, SPR) and in 10% normal human serum (microspheres); also called serum C1q; C1q protein; source: bought: Sigma (purified normal human C1q); endogenous, normal human serum; copies: + +
T1 sequence (P02745 23-245, chain 1 of 3): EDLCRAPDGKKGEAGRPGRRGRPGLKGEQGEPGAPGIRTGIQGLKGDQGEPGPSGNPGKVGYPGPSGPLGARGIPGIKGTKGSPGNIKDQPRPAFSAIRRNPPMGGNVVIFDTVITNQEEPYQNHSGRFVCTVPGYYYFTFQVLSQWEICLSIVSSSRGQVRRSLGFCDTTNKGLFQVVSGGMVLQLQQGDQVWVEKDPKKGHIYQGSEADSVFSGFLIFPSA
T1 sequence (P02746 28-253, chain 2 of 3): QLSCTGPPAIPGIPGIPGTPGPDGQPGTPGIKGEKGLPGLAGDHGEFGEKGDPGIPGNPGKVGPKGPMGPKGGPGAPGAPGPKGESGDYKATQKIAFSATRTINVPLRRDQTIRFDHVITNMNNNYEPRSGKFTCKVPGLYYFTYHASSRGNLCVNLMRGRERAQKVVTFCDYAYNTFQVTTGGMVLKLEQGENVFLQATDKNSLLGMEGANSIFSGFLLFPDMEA
T1 sequence (P02747 29-245, chain 3 of 3): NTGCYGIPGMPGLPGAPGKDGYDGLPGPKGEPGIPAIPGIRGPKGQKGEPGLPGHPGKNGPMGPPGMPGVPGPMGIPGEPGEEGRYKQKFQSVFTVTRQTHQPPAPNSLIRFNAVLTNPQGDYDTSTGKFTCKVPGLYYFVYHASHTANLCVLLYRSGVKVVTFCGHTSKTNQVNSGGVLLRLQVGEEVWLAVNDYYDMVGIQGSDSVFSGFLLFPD
Nature of the experiment: SPR; C1q immobilised on CM5 dextran sensor chip; HMGB1 proteins passed over at 1.8, 0.9, 0.45, 0.23 and 0.11 µM; BIAcore 2000. The settings on record: both partners purified. A general note: Surface plasmon resonance follows binding to a sensor surface in real time, without labels.

Experiment [2] deals with T1, purified normal human C1q. Put plainly: SPR; reciprocal: HMGB1 WT (R&D), A box or B box (10 µg/ml) immobilised on CM5 chip in 10 mM sodium acetate pH 4.0; C1q in HBS-EP (10 mM HEPES, 150 mM NaCl, 3.4 mM EDTA, 0.05% Tween 20, pH 7.4) at 200, 100, 50, 25 and 12.5 nM, 20 µl/min for 3 min; BIAcore 2000. Particulars: both partners purified.

B1: HMGB1 box B (aa 88-162) (domain or fragment, human, UniProt P09429 88-162, looked up)
chain: KFKDPNAPKRPPSAFFLFCSEYRPKIKGEHPGLSIGDVAKKLGEMWNNTAADDKQPYEKKAAKLKEKYEKDIAAY
notes: HMGB1, human, B box, aa 88-162; Subcloned into pRSET B; also called HMGB1 B box; B box; source: E. coli BL21 (DE3) pLysE, purified
For orientation: Kd means the free concentration of one partner at which half of the binding sites on the other are occupied at equilibrium, for simple one-to-one binding. The low end stands for tighter binding, the high end for weaker binding. For the molecule B1, the Kd in experiment [1] is approximately 4 µM.

B2: HMGB1 produced in NS0 mouse myeloma cell line (Euk-HMGB1, R&D Systems) (natural protein, human, UniProt P09429 1-215, looked up)
chain: MGKGDPKKPRGKMSSYAFFVQTCREEHKKKHPDASVNFSEFSKKCSERWKTMSAKEKGKFEDMAKADKARYEREMKTYIPPKGETKKKFKDPNAPKRPPSAFFLFCSEYRPKIKGEHPGLSIGDVAKKLGEMWNNTAADDKQPYEKKAAKLKEKYEKDIAAYRAKGKPDAAKKGVVKAEKSKKKKEEEEDEEDEEDEEEEEDEEDEDEEEDDDDE
notes: High-mobility group box 1 (HMGB1), human, produced in mouse myeloma cell line NS0; No catalogue number is printed; also called HMGB1 WT (R&D); source: bought: R&D Systems (produced in NS0 mouse myeloma cell line)
For the molecule B2, the Kd in experiment [2] is approximately 0.4 µM.

B3: HMGB1 box A (aa 1-79) (domain or fragment, human, UniProt P09429 1-79, looked up)
chain: MGKGDPKKPRGKMSSYAFFVQTCREEHKKKHPDASVNFSEFSKKCSERWKTMSAKEKGKFEDMAKADKARYEREMKTYI
notes: HMGB1, human, A box, aa 1-79; Subcloned into pRSET B; also called HMGB1 A box; A box; source: E. coli BL21 (DE3) pLysE, purified
In experiment [1], B3 had a Kd of approximately 4 µM.
